Test in all cases: ELISA
Background: In an ELISA, binding on a coated surface is turned into a signal by an enzyme label.

Assay [1] deals with T1, human EphA1 extracellular region-SEAP-His protein (human, UniProt P21709 26-547).
T1 construct: extracellular domain; also called hEphA1-SEAP-His
T1 sequence (looked up): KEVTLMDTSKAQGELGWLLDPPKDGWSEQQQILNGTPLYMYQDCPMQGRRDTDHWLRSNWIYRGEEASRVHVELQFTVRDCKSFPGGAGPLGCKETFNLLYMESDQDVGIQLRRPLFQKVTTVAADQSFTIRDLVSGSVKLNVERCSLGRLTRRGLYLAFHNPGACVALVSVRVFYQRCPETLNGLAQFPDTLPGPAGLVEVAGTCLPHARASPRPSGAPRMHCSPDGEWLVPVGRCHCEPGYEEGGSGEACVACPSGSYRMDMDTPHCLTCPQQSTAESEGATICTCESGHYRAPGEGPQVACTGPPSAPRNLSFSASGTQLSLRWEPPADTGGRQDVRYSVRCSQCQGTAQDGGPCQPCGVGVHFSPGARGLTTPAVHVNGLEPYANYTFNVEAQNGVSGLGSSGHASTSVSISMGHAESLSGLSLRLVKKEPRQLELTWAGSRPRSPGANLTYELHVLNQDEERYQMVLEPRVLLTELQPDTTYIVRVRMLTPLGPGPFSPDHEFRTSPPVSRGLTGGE

The target of assay [2] is T2, human EphA6 extracellular region-SEAP-His protein (human, UniProt Q9UF33 23-550).
T2 construct: extracellular domain; also called hEphA6-SEAP-His
T2 sequence (looked up): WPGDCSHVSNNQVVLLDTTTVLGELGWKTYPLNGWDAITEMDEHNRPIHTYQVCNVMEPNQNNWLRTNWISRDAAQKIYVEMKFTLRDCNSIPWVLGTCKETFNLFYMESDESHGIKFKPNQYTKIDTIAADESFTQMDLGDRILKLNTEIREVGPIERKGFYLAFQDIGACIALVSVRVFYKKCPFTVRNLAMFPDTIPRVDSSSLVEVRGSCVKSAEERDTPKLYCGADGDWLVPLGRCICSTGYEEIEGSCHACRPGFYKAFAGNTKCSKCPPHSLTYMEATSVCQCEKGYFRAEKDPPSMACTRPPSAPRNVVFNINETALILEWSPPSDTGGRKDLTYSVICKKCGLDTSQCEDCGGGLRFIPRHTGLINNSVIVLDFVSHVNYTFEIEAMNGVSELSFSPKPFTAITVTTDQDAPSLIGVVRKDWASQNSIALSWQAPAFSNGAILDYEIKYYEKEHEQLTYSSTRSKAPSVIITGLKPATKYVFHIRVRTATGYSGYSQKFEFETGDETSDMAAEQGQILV

In assay [3] the target is T3, human EphB2 extracellular region-SEAP-His protein (human, UniProt P29323 19-543).
T3 construct: extracellular domain; also called hEphB2-SEAP-His
T3 sequence (looked up): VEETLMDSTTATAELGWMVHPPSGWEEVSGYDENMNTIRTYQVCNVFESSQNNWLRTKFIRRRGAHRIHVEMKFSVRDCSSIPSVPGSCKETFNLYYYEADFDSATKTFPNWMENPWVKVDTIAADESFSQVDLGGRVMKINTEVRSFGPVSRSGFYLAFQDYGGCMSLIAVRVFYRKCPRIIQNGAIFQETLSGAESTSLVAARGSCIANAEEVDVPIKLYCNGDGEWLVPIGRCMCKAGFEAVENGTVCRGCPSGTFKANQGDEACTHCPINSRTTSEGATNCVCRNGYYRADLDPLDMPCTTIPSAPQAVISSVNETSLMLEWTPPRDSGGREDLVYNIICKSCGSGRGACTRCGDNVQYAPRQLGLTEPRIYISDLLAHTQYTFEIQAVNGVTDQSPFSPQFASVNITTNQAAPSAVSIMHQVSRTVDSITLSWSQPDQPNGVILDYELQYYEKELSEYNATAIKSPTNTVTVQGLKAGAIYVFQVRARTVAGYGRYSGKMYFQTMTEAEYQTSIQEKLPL

The target of assay [4] is T4, human EphB3 extracellular region-SEAP-His protein (human, UniProt P54753 34-559).
T4 construct: extracellular domain; also called hEphB3-SEAP-His
T4 sequence (looked up): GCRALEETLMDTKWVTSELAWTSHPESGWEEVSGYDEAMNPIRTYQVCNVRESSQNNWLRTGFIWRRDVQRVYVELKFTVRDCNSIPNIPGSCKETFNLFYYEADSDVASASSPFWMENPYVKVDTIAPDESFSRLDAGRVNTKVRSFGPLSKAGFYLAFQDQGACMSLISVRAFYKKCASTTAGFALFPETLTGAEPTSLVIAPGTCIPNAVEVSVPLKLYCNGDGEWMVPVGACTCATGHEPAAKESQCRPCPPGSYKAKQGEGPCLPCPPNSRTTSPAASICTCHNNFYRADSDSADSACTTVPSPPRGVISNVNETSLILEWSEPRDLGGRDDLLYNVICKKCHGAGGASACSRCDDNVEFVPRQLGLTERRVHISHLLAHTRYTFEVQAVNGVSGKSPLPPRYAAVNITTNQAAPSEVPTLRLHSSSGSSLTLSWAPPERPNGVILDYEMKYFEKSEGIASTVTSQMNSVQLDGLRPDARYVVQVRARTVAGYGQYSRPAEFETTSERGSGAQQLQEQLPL

Assay [5] addresses SEAP-His (UniProt P05187 23-511).
Assay [6] addresses T5, human EphA4 extracellular region-SEAP-His protein (human, UniProt P54764 20-547).
T5 construct: also called hEphA4-SEAP-His

Chain of SEAP-His (P05187 23-511): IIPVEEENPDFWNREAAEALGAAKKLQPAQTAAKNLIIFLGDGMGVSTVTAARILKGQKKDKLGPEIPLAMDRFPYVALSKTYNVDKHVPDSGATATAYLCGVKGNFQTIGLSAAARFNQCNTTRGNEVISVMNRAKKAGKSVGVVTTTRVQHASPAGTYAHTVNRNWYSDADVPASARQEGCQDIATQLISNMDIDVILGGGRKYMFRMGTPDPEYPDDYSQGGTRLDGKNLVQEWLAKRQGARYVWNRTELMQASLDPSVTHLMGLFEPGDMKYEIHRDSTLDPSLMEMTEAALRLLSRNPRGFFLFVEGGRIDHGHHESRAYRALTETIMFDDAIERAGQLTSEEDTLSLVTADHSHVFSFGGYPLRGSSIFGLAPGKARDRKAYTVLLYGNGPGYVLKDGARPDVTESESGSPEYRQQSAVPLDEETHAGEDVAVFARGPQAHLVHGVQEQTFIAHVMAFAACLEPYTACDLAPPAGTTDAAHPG
T5 sequence (P54764 20-547): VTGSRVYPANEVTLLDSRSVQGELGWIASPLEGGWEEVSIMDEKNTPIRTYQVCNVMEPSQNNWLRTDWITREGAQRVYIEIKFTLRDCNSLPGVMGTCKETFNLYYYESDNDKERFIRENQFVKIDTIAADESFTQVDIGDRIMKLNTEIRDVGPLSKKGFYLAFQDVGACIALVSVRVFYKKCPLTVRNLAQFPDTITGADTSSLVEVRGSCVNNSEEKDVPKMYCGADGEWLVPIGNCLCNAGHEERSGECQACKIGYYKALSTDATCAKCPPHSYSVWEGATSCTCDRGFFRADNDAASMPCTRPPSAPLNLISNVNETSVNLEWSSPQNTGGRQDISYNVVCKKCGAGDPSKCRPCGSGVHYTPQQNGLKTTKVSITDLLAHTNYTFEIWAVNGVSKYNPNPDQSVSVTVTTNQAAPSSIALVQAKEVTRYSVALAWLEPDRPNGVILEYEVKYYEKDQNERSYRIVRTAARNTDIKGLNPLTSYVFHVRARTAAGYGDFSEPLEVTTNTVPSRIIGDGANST

B1: humanized antibody No. 86 (antibody, human IgG1, kappa)
heavy: QIQLVQSGSELKKPGASVKVSCKASGYTFTDYSMHWVRQAPGQGLKWMGWINTETGEPTYADDFKGRFVFSLDTSVSTAYLQISSLKAEDTAVYYCARIPLYYYGSRYWYFDVWGQGTTVTVSSASTKGPSVFPLAPSSKSTSGGTAALGCLVKDYFPEPVTVSWNSGALTSGVHTFPAVLQSSGLYSLSSVVTVPSSSLGTQTYICNVNHKPSNTKVDKRVEPKSCDKTHTCPPCPAPPAAAPSVFLFPPKPKDTLMISRTPEVTCVVVDVSHEDPEVQFNWYVDGVEVHNAKTKPREEQFNSTFRVVSVLTVVHQDWLNGKEYKCKVSNKGLPAPIEKTISKTKGQPREPQVYTLPPSREEMTKNQVSLTCLVKGFYPSDIAVEWESNGQPENNYKTTPPMLDSDGSFFLYSKLTVDKSRWQQGNVFSCSVMHEALHNHYTQKSLSLSPG
light: DIQMTQSPSSLSASVGDRVTITCRASENIYRNLAWYQQKPGKAPKLLLYAATNLADGVPSRFSGSGSGTDYTLTISSLQSEDFATYYCQHFWGTPWTFGQGTKVEIKRTVAAPSVFIFPPSDEQLKSGTASVVCLLNNFYPREAKVQWKVDNALQSGNSQESVTEQDSKDSTYSLSSTLTLSKADYEKHKVYACEVTHQGLSSPVTKSFNRGEC
notes: human Ig kappa; also called L1-5/HK4
As for B1, the “A450 as % of hEphA4-SEAP-His” value worked out at 5.9% in assay [1]; 8.6% in assay [2]; 5.7% in assay [3]; 5.9% in assay [4]; 6.1% in assay [5]; 100% in assay [6].

B2: humanized antibody No. 87 (antibody, human IgG1, kappa)
heavy: QVQLVQSGSELKKPGASVKVSCKASGYTFTDYSMHWVRQAPGQGLEWMGWINTETGEPTYAQGFTGRFVFSLDTSVSTAYLQISSLKAEDTAVYYCARIPLYYYGSRYWYFDVWGQGTTVTVSSASTKGPSVFPLAPSSKSTSGGTAALGCLVKDYFPEPVTVSWNSGALTSGVHTFPAVLQSSGLYSLSSVVTVPSSSLGTQTYICNVNHKPSNTKVDKRVEPKSCDKTHTCPPCPAPPAAAPSVFLFPPKPKDTLMISRTPEVTCVVVDVSHEDPEVQFNWYVDGVEVHNAKTKPREEQFNSTFRVVSVLTVVHQDWLNGKEYKCKVSNKGLPAPIEKTISKTKGQPREPQVYTLPPSREEMTKNQVSLTCLVKGFYPSDIAVEWESNGQPENNYKTTPPMLDSDGSFFLYSKLTVDKSRWQQGNVFSCSVMHEALHNHYTQKSLSLSPG
light: DIQMTQSPSSLSASVGDRVTITCRASENIYRNLAWYQQKPGKAPQLLLYAATNLADGVPSRFSGSGSGTDYTLTISSLQPEDFATYYCQHFWGTPWTFGQGTKVEIKRTVAAPSVFIFPPSDEQLKSGTASVVCLLNNFYPREAKVQWKVDNALQSGNSQESVTEQDSKDSTYSLSSTLTLSKADYEKHKVYACEVTHQGLSSPVTKSFNRGEC
notes: human Ig kappa; also called L1-6/HA1
For the molecule B2, the “A450 as % of hEphA4-SEAP-His” value was found to be 5.3% in assay [1]; 6.4% in assay [2]; 5.4% in assay [3]; 5.5% in assay [4]; 5.5% in assay [5]; 100% in assay [6].

B3: humanized antibody No. 88 (antibody, human IgG1, kappa)
heavy: QVQLVQSGSELKKPGASVKVSCKASGYTFTDYSMHWVRQAPGQGLKWMGWINTETGEPTYAQGFTGRFVFSLDTSVSTAYLQISSLKAEDTAVYYCARIPLYYYGSRYWYFDVWGQGTTVTVSSASTKGPSVFPLAPSSKSTSGGTAALGCLVKDYFPEPVTVSWNSGALTSGVHTFPAVLQSSGLYSLSSVVTVPSSSLGTQTYICNVNHKPSNTKVDKRVEPKSCDKTHTCPPCPAPPAAAPSVFLFPPKPKDTLMISRTPEVTCVVVDVSHEDPEVQFNWYVDGVEVHNAKTKPREEQFNSTFRVVSVLTVVHQDWLNGKEYKCKVSNKGLPAPIEKTISKTKGQPREPQVYTLPPSREEMTKNQVSLTCLVKGFYPSDIAVEWESNGQPENNYKTTPPMLDSDGSFFLYSKLTVDKSRWQQGNVFSCSVMHEALHNHYTQKSLSLSPG
light: DIQMTQSPSSLSASVGDRVTITCRASENIYRNLAWYQQKPGKAPQLLLYAATNLADGVPSRFSGSGSGTDYTLTISSLQPEDFATYYCQHFWGTPWTFGQGTKVEIKRTVAAPSVFIFPPSDEQLKSGTASVVCLLNNFYPREAKVQWKVDNALQSGNSQESVTEQDSKDSTYSLSSTLTLSKADYEKHKVYACEVTHQGLSSPVTKSFNRGEC
notes: human Ig kappa; also called L1-6/HA2
As to B3, the “A450 as % of hEphA4-SEAP-His” value in assay [1] stood at 5.8%; in assay [2], 7.5%; in assay [3] it was 6%; in assay [4] it was 6.3%; in assay [5] it was 6.1%; in assay [6] it was 100%.

B4: humanized antibody No. 89 (antibody, human IgG1, kappa)
heavy: QIQLVQSGSELKKPGASVKVSCKASGYTFTDYSMHWVRQAPGQGLKWMGWINTETGEPTYAQGFTGRFVFSLDTSVSTAYLQISSLKAEDTAVYYCARIPLYYYGSRYWYFDVWGQGTTVTVSSASTKGPSVFPLAPSSKSTSGGTAALGCLVKDYFPEPVTVSWNSGALTSGVHTFPAVLQSSGLYSLSSVVTVPSSSLGTQTYICNVNHKPSNTKVDKRVEPKSCDKTHTCPPCPAPPAAAPSVFLFPPKPKDTLMISRTPEVTCVVVDVSHEDPEVQFNWYVDGVEVHNAKTKPREEQFNSTFRVVSVLTVVHQDWLNGKEYKCKVSNKGLPAPIEKTISKTKGQPREPQVYTLPPSREEMTKNQVSLTCLVKGFYPSDIAVEWESNGQPENNYKTTPPMLDSDGSFFLYSKLTVDKSRWQQGNVFSCSVMHEALHNHYTQKSLSLSPG
light: DIQMTQSPSSLSASVGDRVTITCRASENIYRNLAWYQQKPGKAPQLLLYAATNLADGVPSRFSGSGSGTDYTLTISSLQPEDFATYYCQHFWGTPWTFGQGTKVEIKRTVAAPSVFIFPPSDEQLKSGTASVVCLLNNFYPREAKVQWKVDNALQSGNSQESVTEQDSKDSTYSLSSTLTLSKADYEKHKVYACEVTHQGLSSPVTKSFNRGEC
notes: human Ig kappa; also called L1-6/HA4
For B4, the “A450 as % of hEphA4-SEAP-His” value stood at 5.5% in assay [1]; 8.4% in assay [2]; 5.7% in assay [3]; 5.7% in assay [4]; 5.8% in assay [5]; 100% in assay [6].
